Source: the nanobody polyreactivity screen of Harvey et al. (2022)

Assay: yeast display, Sf9 membrane polyspecificity reagent, FACS + sequencing; frameworks hold sequencing errors
How it was run: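 Galactose-induced (36–48 hours) yeast carrying a synthetic nanobody display library were exposed to 10% biotinylated, detergent-solubilized Sf9 membrane reagent at 4 °C for 1 hour. FACS followed streptavidin microbead enrichment, using low and high (top ~1%) gates for expression (anti-HA) and reagent binding (streptavidin). Colony PCR, MiSeq 2 × 250 sequencing and CDR-length filtering followed. Labels for polyreactivity reflect the gate of origin.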

Row | Sequence | polyreactivity (PSR sort gate)
1 | QVQLVESGGGLVQAGGSLRLSCAASVRTFKWYAMGWYRQAPGKERELVAGISRGAGRTYYADSVKWRFTMSRDNAKNTVYLQMNSLKPEDTAVYYCAAVPSYHSTSPFYYWGQGTQVTVSS | high polyreactivity
2 | QVQLVESGGGLVQAGGSLRLSCAASVRTFKYYAMGWYRQAPGKERELVAAISWSGSSTYYADSVKGRFTISRDNAKNTVDLPMNSLKPEDPAVYYCAAATYRQFTGTYDYWGQGTQVTVSS | high polyreactivity
3 | QVQLVESGGGLVQAGGSLRLSCAASVRTFRIYAMGWYRQAPGKERELVAAISWDDGSTYYADSVKGRFTISRDNAKNTVYLQMNSLKPEDTAVYYCAAEYYFVNRGAWYDYWGQGTQVTVSS | high polyreactivity
4 | QVQLVESGGGLVQAGGSLRLSCAASVRTFVVYAMGWYRQAPGKEREMVAVISFTGDSTFYADSVKGRFTISRDNAKNTVYLQMNSLKPEDTAVYYCNAGPYTYLHWNQAISRYYYWGQGTQVTVSS | low polyreactivity
5 | QVQLVESGGGLVQAGGSLRLSCAASVRTSGRYAMGWYRQAPGKERELVAAISWSGGSTYYADSVQGRFTSSRDNAKNTVYLQMNSLKPEDTAVYYCNAQHALGYYYWGQGTQVTVSS | low polyreactivity
6 | QVQLVESGGGLVQAGGSLRLSCAASVSIFATNAKGWYRQAPGKERELVASISSGGGSTYYADSVKGRFTISRDNEKNTVYLQMNSLKPEDTAVYYFARRIGHGSRPYWLETWRYPYDYWGQGTQLTVSS | low polyreactivity
7 | QVQLVESGGGLVQAGGSLRLSCAASVSIFAYYAMGLYRQAPGKERELVAAISRGGDTNYADSVKGRFTISRDNAKNTVYLQMNSLKPEDTAVSYCAATSYVRGYWYGYWGQGSQVTVSS | high polyreactivity
8 | QVQLVESGGGLVQAGGSLRLSCAASVSIFGPYAKGWYRQAPGKERDLDAAISRGSRTNYADSVKGLFTISRDNEKNTVYLQMNSLKPEDTAVYYCAARYVWRSTHHRGSTYDYWRQGTQVTVSS | high polyreactivity
9 | QVQLVESGGGLVQAGGSLRLSCAASVSIFSSYAMGWYRQAPGKERELVAAISSSGDSTDADSVKGRFTISRDNAKNTVYLQMNSLKPEDTAVYYCAVGGAGSDDYWGHGTQVTVSS | low polyreactivity
10 | QVQLVESGGGLVQAGGSLRLSCAASVSIFYPYAMGWYRQAPGKERELVAAIRWSGGRTYYADSVKGRFTISRDNAKNTVYLQMNSLKPEDTAVYYCAADGQVSGYDYWGQGTQVTVSS | high polyreactivity
11 | QVQLVESGGGLVQAGGSLRLSCAASVSIIACYTMGWYRQATGTERELVAGIRRGGSTNYADSVKGRVTISRDNAKNTVYLQMNSLKPEDTAVYYCNAQRTRSYVLRTFDYWGQGTQVTVSS | high polyreactivity
12 | QVQLVESGGGLVQAGGSLRLSCAASVSIILDNAMGWYRQAPGKERELVASIDWSGGSTDYADSVKGRFTISRDNAKNTVYLQMNSLKPEDTAVYYCNAERYPYRLRARKLDYWGQGTQVTVSS | low polyreactivity
13 | QVQLVESGGGLVQAGGSLRLSCAASVSTFALYVMGWYRQAPGKERELVAAITDSSSTYYADSVKGRFTISRDNAKNTVYLQMNSLKPEDTAVYYCAARGRLIYAITYRNSPVYYWGQGTQVTVSS | low polyreactivity
14 | QVQLVESGGGLVQAGGSLRLSCAASVSTFDYYTMGRYRQAPGKERELVAAISSAGSTNYADSVKGRFTISRDNAKNTVYLQMNSLKPEDTAVYYCAAQVHPIRYDYWGQGTQVTVSS | low polyreactivity
15 | QVQLVESGGGLVQAGGSLRLSCAASVSTFFRNAMGWYRQAPGKERELVAAISKSGTSTYYADSVKGRFTISRDNAKNTVYLQMNSLKPEDTAVYYCAKYGFSYPQSYAYYYWGQGTQVTVSS | high polyreactivity
16 | QVQLVESGGGLVQAGGSLRLSCAASVSTFGGYAMGWYRQAPGKERELDAAITYSGGSTYYADSVKGRFTISRDNAKNTVYLQMNSLKPEDTAVYYCNADDDDALPWWWPYVLDVDYWGQGTQVTVSS | low polyreactivity

Row | Sequence | polyreactivity (PSR sort gate)
17 | QVQLVESGGGLVQAGGSLRLSCAASVSTFRNYAMGWYRQAPGKERELVAAISGSGVRTYYADSVKGRFTISRDNAKNTVYLQMNSLKPEDTAVYYCAARGQGGPYNYWGQGTQVTVSS | high polyreactivity
18 | QVQLVESGGGLVQAGGSLRLSCAASVSTFVLYAMGWYRQAPGKERELVAVISWSGGSTYYADSVKGRFTISRDNAKNTVYLQMNSLKPEDTAVYYCAADSTWEGGYKYEYWGQGTQVTVSS | low polyreactivity
19 | QVQLVESGGGLVQAGGSLRLSCAASVSTFYRYTMVWYRQAPGKERELVAAITYRGGTTYYADSVKGRFTISRDNAKNTVYLQMNSLKPEDTAVYYCAAYSSLGYIMNYWGQGTQVTVSS | high polyreactivity
20 | QVQLVESGGGLVQAGGSLRLSCAASVSTIGYYAMGWYRQAPGKEWELVAAITWSGDSTYADSVKGRFTISRDNAKNTVYLQMNRLKPEDTAVYYCARRGFLGHWPRPSYDYWGQGTQVTVSS | low polyreactivity
21 | QVQLVESGGGLVQAGGSLRLSCAASVYIFVPYTLGWYRQAPGKERELVAAITRSGGSTYYADSVKGRFTISRDNAKNTVSLQMNSLKPEDTAVYYCATVGGPRWVRAQYDYWGQGTQVTVSS | high polyreactivity
22 | QVQLVESGGGLVQAGGSLRLSCAASVYTFSKNTMGWYRQAPGKEREFVAAINWSGGSTYYADSVKGRFTISRDNAKNTVYLQMNSLKPEDTAVYYFAARRGGRRGYDYWGQGTQVTVSS | high polyreactivity
23 | QVQLVESGGGLVQAGGSLRLSCAATGFIFPYYAMGLYRQAPGKEREMVAAITFSATRTYYADSVKGRFTISRDNAKNTVYLQMNSLKPEDTAVYYCNARGGVYGSYFEFNYWGQGTQVTVSS | low polyreactivity
24 | QVQLVESGGGLVQAGGSLRLSCAATGFRFVHTAIGWYRKAPGKERELVAAIRSRGGSTYYADSVKGRFTISRDNAKNTVYLQMKSLKPEDTAVYYCAADGAVDSSSRKFGYWGQGTQVNVSS | low polyreactivity
25 | QVQLVESGGGLVQAGGSLRLSCAATGFTFGWNDMGWYRQARGKEMELVAAISGGGGSTYYADSVKGRFTISRDNAKNTVYLQMNSLKPEDTAVYYCATDSGTLIVKYDYWGQGTQVTVSS | low polyreactivity
26 | QVQLVESGGGLVQAGGSLRLSCAATGFTFRYNAMGWYRQAPGKERELGAAISIGGTTNYADSVKGRFTISRDNAKNTVYLQMNSLKPEDTAVYYCNALGTYFRRYDYWGQGTQVTVSS | low polyreactivity
27 | QVQLVESGGGLVQAGGSLRLSCAATGFTFSLYGMGWYRQAPGKERELVAAIRSGGSTNYADSVKGRFTISRDNAKNTVYLQMNSLKPVDTAVYYCATDIHSVHNNRDKHDYDYWGQGTQVTVSS | low polyreactivity
28 | QVQLVESGGGLVQAGGSLRLSCAATGFTFSYYALGWYRQAPGKERELVAVISDRGGITYYADSVKGRFTISRDNAKNTVYLQMNSLKPEDTADYYCAAQNPRYNYRYYYWGHGTQVTVSS | low polyreactivity
29 | QVQLVESGGGLVQAGGSLRLSCAATGLTIWHYVMGWYRQAPGKERELVATISSSGGSTFYADSVKGRFTISRDNAKNTVYLQMNSLKPEDTAVYYCNADQYSWRWRRKHDYWGQGTQVTVSS | high polyreactivity
30 | QVQLVESGGGLVQAGGSLRLSCAATGRIFGRNAMGWYRQAPGKERELVAAINSGVSTYYADSVKGRFTISRDNAKNTVYLQMNSLKPQDTAVYYCANAPPRRYYDFDYWGQGTQVTVSS | low polyreactivity
31 | QVQLVESGGGLVQAGGSLRLSCAATGRIVTSNAMGWYRQAPGKERELVAVISRRGGSTYYADSVKGRFTISRDNAKNTVYLQMNRLKPEETAVYYCARRPYSYTRYEYWGQGTQVTVSS | low polyreactivity
